Data as given in article PMC5916898, “Global profiling of protein–DNA and protein–nucleosome binding affinities using quantitative mass spectrometry”.

Key:
Assay in all cases: pulldown; 150 mM NaCl, 50 mM Tris pH 8, 0.25% NP-40, 1 mM TCEP; 4 C, 2 h; 100 ug HeLa nuclear lysate
[1] = biological target: T1, ZBTB10 (Homo sapiens, UniProt Q96DT7); conditions: protein: extract; label: 5' biotin (strand 1)
T1 sequence: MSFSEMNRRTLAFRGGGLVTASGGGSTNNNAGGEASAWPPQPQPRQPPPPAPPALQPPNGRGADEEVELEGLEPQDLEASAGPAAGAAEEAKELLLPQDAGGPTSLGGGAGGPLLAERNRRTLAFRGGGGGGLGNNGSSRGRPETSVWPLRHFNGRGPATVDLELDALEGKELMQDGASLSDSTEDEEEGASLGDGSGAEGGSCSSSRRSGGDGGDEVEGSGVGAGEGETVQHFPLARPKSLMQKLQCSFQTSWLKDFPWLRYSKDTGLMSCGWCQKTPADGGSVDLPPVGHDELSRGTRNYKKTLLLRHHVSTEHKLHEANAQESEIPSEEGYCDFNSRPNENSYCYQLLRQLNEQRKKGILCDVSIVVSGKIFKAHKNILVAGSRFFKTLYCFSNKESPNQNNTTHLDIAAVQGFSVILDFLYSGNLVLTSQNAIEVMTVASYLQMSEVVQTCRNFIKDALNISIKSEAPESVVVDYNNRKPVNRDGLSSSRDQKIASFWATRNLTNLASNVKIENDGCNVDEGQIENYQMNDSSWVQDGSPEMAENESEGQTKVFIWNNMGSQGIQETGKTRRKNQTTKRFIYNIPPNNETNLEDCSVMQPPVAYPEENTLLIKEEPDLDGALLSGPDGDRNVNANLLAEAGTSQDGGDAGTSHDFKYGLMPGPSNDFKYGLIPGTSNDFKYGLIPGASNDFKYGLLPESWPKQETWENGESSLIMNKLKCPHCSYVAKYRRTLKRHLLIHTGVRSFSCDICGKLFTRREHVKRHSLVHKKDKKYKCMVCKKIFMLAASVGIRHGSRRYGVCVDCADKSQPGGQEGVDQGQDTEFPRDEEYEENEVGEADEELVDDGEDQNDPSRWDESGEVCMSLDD

[2] = biological target: HIVEP1 (Homo sapiens, UniProt P15822)
[3] = biological target: YY1 (Homo sapiens, UniProt P25490); conditions: protein: extract; label: 5' biotin (strand 1)
[4] = biological target: ZNF787 (Homo sapiens, UniProt Q6DD87); conditions: protein: extract; label: 5' biotin (strand 1)
[5] = biological target: HOXC10 (Homo sapiens, UniProt Q9NYD6); conditions: protein: extract; label: 5' biotin (strand 1)
[6] = biological target: T2, NFATC3 (Homo sapiens, UniProt Q12968); conditions: protein: extract; label: 5' biotin (strand 1)
T2 sequence: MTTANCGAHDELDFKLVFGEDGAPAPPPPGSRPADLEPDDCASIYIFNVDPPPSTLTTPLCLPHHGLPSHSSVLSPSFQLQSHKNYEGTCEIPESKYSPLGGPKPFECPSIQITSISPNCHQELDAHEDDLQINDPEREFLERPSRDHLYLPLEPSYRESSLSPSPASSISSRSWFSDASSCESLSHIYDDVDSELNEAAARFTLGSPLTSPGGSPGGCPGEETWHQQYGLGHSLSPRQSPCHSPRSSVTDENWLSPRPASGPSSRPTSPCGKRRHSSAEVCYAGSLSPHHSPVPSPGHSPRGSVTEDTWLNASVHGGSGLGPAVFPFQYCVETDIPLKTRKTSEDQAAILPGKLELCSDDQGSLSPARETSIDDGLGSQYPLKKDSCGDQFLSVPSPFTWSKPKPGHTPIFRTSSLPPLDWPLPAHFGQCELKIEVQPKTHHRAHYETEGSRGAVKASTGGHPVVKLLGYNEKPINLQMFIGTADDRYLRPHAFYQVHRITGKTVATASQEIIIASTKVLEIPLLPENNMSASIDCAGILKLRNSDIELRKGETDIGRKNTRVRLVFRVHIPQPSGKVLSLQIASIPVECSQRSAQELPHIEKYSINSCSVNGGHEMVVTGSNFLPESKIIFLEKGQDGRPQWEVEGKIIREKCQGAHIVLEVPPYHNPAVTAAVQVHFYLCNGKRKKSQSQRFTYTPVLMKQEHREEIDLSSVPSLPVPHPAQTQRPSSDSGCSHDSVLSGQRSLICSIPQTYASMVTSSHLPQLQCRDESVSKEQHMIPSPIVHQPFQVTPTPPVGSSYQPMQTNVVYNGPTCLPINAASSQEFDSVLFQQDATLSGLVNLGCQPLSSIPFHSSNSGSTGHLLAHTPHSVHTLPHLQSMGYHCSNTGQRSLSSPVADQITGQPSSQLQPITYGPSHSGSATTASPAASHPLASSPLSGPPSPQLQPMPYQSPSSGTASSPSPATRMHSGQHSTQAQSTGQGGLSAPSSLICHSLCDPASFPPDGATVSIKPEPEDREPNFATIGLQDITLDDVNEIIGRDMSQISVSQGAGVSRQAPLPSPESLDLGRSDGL

Sequence of ZNF787 (Q6DD87 whole entry): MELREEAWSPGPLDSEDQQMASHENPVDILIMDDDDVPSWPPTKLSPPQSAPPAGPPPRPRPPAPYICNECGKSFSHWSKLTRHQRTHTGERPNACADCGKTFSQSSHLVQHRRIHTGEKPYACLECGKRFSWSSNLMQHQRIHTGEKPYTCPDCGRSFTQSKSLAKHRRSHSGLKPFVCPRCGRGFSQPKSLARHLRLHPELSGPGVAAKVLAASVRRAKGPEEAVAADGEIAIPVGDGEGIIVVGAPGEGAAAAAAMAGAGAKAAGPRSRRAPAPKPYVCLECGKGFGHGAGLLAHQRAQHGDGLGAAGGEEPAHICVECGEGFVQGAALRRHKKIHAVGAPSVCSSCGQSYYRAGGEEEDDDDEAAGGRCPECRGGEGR
Sequence of HOXC10 (Q9NYD6 whole entry): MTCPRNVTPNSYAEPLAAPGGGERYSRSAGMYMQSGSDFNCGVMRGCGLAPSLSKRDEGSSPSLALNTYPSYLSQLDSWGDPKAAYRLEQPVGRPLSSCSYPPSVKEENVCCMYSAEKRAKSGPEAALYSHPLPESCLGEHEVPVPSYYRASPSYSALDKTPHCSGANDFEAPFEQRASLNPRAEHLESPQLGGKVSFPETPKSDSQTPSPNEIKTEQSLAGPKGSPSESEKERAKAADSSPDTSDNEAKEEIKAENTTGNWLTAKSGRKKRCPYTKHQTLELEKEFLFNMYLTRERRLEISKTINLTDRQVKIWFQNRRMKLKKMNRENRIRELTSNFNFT
Sequence of YY1 (P25490 whole entry): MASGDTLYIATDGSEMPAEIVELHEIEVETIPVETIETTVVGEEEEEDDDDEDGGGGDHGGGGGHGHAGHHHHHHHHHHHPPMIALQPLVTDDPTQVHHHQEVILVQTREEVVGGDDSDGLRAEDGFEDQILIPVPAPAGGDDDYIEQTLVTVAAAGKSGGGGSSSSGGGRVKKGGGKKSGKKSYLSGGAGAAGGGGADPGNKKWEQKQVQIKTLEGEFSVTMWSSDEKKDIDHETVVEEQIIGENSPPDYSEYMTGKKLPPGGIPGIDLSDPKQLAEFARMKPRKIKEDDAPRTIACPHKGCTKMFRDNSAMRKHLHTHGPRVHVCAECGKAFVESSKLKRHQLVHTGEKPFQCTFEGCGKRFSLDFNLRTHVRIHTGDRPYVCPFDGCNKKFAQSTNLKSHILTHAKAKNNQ

B1: CTCF (dsDNA)
DNA 1: TCAGAGTGGCGGCCAGCAGGGGGCGCCCTTGCCAGA
DNA 2: TCTGGCAAGGGCGCCCCCTGCTGGCCGCCACTCTGA
apparent K (half saturation) [1]: 40.4 nM | apparent K (half saturation) [2]: 76.6 nM | apparent K (half saturation) [3]: 400 nM | apparent K (half saturation) [4]: 370 nM

B2: TATA-box (dsDNA)
DNA 1: GCGGCGCTCTATATAAGTGGGCAGTG
DNA 2: CACTGCCCACTTATATAGAGCGCCGC
apparent K (half saturation) [5]: 87.8 nM

B3: TEAD (dsDNA)
DNA 1: TCGGGACCCAGGCCTGGAATGTTTCCACC
DNA 2: GGTGGAAACATTCCAGGCCTGGGTCCCGA
apparent K (half saturation) [6]: 46.7 nM
